Source: PMC5861452

biological target: NS5A domain 1+ (WT) (Hepatitis C virus (replicon plasmid …, UniProt Q9WMX2 2005-2221)); test: fluorescence polarization
Sequence (Q9WMX2 2005-2221): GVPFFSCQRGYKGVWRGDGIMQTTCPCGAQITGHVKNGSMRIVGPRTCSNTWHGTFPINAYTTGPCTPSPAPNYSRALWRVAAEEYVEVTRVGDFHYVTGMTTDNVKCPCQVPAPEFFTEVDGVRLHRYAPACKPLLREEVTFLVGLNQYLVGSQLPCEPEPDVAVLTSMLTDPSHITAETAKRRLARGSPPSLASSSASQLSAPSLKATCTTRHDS

Binder | Kd
UGUUUGUUUGUCCC (ssRNA) [RNA 3 (minimal GRE)] | 100 ± 10 nM
GGCUGAGGCAGG (ssRNA) [RNA 1 (consensus sequence 1)] | 10 ± 1.5 nM
GGGUGGGGGUGG (ssRNA) [RNA 2 (consensus derived)] | 20 ± 2.7 nM
AAAAAAAAAAAAAAA (ssRNA) [RNA 6 (A15)] | 1000 ± 150 nM
